{
  "source": "IntAct's records for PubMed 18342605",
  "parents": {"B1": {"name": "Serine/threonine-protein phosphatase PP1-2 (Saccharomyces cerevisiae), P32598 (parent)", "chain": "MDSQPVDVDNIIDRLLEVRGSKPGQQVDLEENEIRYLCSKARSIFIKQPILLELEAPIKICGDIHGQYYDLLRLFEYGGFPPESNYLFLGDYVDRGKQSLETICLLLAYKIKYPENFFILRGNHECASINRIYGFYDECKRRYNIKLWKTFTDCFNCLPIAAIIDEKIFCMHGGLSPDLNSMEQIRRVMRPTDIPDVGLLCDLLWSDPDKDIVGWSENDRGVSFTFGPDVVNRFLQKQDMELICRAHQVVEDGYEFFSKRQLVTLFSAPNYCGEFDNAGAMMSVDESLLCSFQILKPAQKSLPRQAGGRKKK"}, "B2": {"name": "RNA end formation protein 2 (Saccharomyces cerevisiae), P42073 (parent)", "chain": "MSAPVPQLVNISHALQASTIQQIRLDMVDFNKDCKLSSIQLARIDKYIDSLQAALNQFTKDNLHIERKEKNVTEADIQLYSGLKSMYLDYLNQLIKLKHEKQHHSTPPIANDVSLDFFVNQLPKFSPEERKNYIDNLILNKNSHNRLSKMDGLVDAVINLCVLDTSVAENVRSYMKLLDTLGFQKGSNSTGTKANLKKKLASSKAKIKDSEKEKEKEKDKSKVKMKTKLKPSPLLNNDDKNSSPSPTASTSSMKKLKSGLFNKNEAKSTESLPTSSKKKLSFSKYLNKDDADMTKLGTKRSIDVDFKVNPEASTVASNIISSSTSGSSTTTVATPASSEEPLKKKTKISVQDSNVQSILRNGKPKKARISSIKFLDDSQLIKVYGDDLPNQGLQVSPTQLKKILKPFKEGEPKEIILFEDMSIKLKPLDLMFLKNTNSDDYMDISETKGGPIHCETRTPLIYRKNFNHFNPDLNKRPPREPIEFDLNGNTNSTPTIAKAFGKNSLLLRKDRGGLPYKHVPIVKRNKYPPRPVH"}, "B3": {"name": "Serine/threonine-protein phosphatase PP1-2 (Saccharomyces cerevisiae), P32598 (parent)", "chain": "B1 chain", "partner": "B2 chain"}, "B4": {"name": "Serine/threonine-protein phosphatase PP1-2 (Saccharomyces cerevisiae), P32598 (parent)", "chain": "B1 chain", "partner": "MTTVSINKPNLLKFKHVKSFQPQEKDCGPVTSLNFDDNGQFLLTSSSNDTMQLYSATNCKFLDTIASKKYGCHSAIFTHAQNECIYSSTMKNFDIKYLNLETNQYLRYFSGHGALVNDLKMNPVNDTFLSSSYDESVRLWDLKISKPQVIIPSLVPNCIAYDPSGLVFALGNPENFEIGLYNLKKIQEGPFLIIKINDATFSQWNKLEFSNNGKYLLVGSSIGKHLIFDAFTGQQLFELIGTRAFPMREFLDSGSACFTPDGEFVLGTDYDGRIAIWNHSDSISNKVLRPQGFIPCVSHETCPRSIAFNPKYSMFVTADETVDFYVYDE"}},
  "data": [
    {"variants_of": "B1", "conditions": "with sen1_yeast SEN1, Q00416", "values": [
      {"variant": "F256A", "effect of a mutation on the interaction": "disrupting interaction strength"},
      {"variant": "F256A;F292A", "effect of a mutation on the interaction": "disrupting interaction strength"},
      {"variant": "F292A", "effect of a mutation on the interaction": "decreasing interaction strength"}
    ]},
    {"variants_of": "B2", "conditions": "with pp12_yeast GLC7, P32598", "values": [
      {"variant": "F374A", "effect of a mutation on the interaction": "disrupting interaction strength"}
    ]},
    {"variants_of": "B3", "conditions": "with ref2_yeast REF2, P42073", "values": [
      {"variant": "F256A;F292A", "effect of a mutation on the interaction": "disrupting interaction strength"},
      {"variant": "F256A", "effect of a mutation on the interaction": "disrupting interaction strength"},
      {"variant": "F292A", "effect of a mutation on the interaction": "decreasing interaction strength"}
    ]},
    {"variants_of": "B4", "conditions": "with swd2_yeast SWD2, P36104", "values": [
      {"variant": "F256A", "effect of a mutation on the interaction": "disrupting interaction strength"},
      {"variant": "F256A;F292A", "effect of a mutation on the interaction": "disrupting interaction strength"},
      {"variant": "F292A", "effect of a mutation on the interaction": "decreasing interaction strength"}
    ]}
  ]
}
